A word on the EC50 (read off the curve): it is the concentration at which the effect is half-maximal.

Assay [1] deals with cynomolgus CD3-epsilon (cynomolgus) (UniProt Q95LI5). Kind of assay: flow cytometry on cynomolgus T cells. In general terms: Flow cytometry measures light scatter and fluorescence of single cells or particles in a stream.
Assay [2] addresses human CD3 epsilon (CD3ε) (human) (UniProt P07766). Briefly: flow cytometry on human T cells.
The target in assay [3] is vCD3e #p1 peptide. Briefly: Luminex bead assay, 1 ug/ml antibody [Cont.].
Assay [4] deals with huCD3d/eCHO-E DT1331 (human) (UniProt P04234). Kind of assay: Luminex bead assay, 1 ug/ml antibody [Cont.].
Sequence of huCD3d/eCHO-E DT1331 (human) (P04234 22-105): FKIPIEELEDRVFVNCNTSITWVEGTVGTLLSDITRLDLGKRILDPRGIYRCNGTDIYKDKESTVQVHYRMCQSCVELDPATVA
Assay [5] concerns the target biotinylated 15-mer peptide corresponding to the CD3ε N-terminus (human) (UniProt P07766). Kind of assay: Luminex bead assay, 1 ug/ml antibody [Cont.].
For assay [6], the target named is T1, (H2N-…-OH) vCD3e #p2-BSA.
T1 sequence (peptide, conjugated to BSA): CPQYPGSEILWQHNDK
Kind of assay: Luminex bead assay, 1 ug/ml antibody [Cont.].

Assay [7] has as its target T2, (H2N-…-OH) vCD3e #p3-BSA.
T2 sequence (peptide, conjugated to BSA): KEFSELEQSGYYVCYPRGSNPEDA
Kind of assay: Luminex bead assay, 1 ug/ml antibody [Cont.].

Assay [8] deals with BSA alone (bovine) (UniProt P02769). Kind of assay: Luminex bead assay, 1 ug/ml antibody [Cont.].
Sequence of BSA alone (bovine) (P02769 25-607 limits assumed): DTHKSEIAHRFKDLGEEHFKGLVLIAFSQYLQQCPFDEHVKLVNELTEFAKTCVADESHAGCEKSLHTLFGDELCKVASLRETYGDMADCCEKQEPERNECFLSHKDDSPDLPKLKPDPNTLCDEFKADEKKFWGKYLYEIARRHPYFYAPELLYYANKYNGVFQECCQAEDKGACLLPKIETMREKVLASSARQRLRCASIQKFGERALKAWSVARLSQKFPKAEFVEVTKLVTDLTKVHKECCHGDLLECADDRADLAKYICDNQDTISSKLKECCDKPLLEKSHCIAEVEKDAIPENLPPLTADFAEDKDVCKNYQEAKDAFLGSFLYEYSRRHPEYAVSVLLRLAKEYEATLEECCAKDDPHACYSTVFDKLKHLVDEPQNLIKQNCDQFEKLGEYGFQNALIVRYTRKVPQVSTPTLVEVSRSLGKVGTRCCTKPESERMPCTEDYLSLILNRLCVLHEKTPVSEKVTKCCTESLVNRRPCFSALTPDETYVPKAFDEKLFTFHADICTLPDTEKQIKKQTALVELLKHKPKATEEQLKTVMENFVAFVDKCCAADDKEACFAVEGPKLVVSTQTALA
Assay [9] has as its target cynomolgus CD3-epsilon (cynomolgus) (UniProt Q95LI5). Kind of assay: Luminex bead assay, 1 ug/ml antibody; recombinant cyno CD3 (sinobiologicals) on beads [Cont.].

Sequence of cynomolgus CD3-epsilon (cynomolgus) (Q95LI5 22-198): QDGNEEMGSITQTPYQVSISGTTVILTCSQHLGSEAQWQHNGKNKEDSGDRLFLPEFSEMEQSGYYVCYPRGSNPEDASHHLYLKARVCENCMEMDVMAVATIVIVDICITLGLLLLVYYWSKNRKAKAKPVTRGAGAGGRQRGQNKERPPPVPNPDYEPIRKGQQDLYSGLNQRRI

B1: SP34-2 (antibody, from a related filing, V domains shown)
VH: EVQLVESGGGLVQPKGSLKLSCAASGFTFNTYAMNWVRQAPGKGLEWVARIRSKYNNYATYYADSVKDRFTISRDDSQSILYLQMNNLKTEDTAMYYCVRHGNFGNSYVSWFAYWGQGTLVTVSA
VL: QAVVTQESALTTSPGETVTLTCRSSTGAVTTSNYANWVQEKPDHLFTGLIGGTNKRAPGVPARFSGSLIGDKAALTITGAQTEDEAIYFCALWYSNLWVFGGGTKLTVL
On to B1, for which the EC50 (read off the curve) was 0.3 nM in assay [1] and 0.2 nM in assay [2]. Besides, the Luminex signal turned out to be 17900 in [3]; 22100 in assay [4]; 6.5 in [5]; 184 in assay [6]; 439 in assay [7]; 398 in assay [8]. For the same molecule, the Luminex signal in [9] is 17200.

B2: 6d59 (antibody, V domains shown)
VH: QVHLVESGGGVVQPGRSLRLSCAASGFKFRSYGMHWVRQAPGKGLEWVAIIWYDGSKRYYADSVKGRFTISRDNSKNTLYLQMSSLRAEDTAVYYCARDLITGTTDYWGQGTLVTVSS
VL: DVVMTQSPLSLPVTLGQPASISCRSSRSLVYSDGNTHLIWFQQRPGQSPRRLIYRVSNRVSGVPDRFSGSGSGTDFTLKISRVEAEDVGVYYCLQGAHWPYTFGQGTKLEIKR
On to B2, for which the Luminex signal in [6] stood at 238.

These data come from patent US20230057263A1.
